Values quoted from earlier work as cited in PMC2996745.

Molecular target: VEGFR2 (flk-1) (Homo sapiens) (UniProt P35968)
Sequence of UniProt P35968 (P35968 20-1356): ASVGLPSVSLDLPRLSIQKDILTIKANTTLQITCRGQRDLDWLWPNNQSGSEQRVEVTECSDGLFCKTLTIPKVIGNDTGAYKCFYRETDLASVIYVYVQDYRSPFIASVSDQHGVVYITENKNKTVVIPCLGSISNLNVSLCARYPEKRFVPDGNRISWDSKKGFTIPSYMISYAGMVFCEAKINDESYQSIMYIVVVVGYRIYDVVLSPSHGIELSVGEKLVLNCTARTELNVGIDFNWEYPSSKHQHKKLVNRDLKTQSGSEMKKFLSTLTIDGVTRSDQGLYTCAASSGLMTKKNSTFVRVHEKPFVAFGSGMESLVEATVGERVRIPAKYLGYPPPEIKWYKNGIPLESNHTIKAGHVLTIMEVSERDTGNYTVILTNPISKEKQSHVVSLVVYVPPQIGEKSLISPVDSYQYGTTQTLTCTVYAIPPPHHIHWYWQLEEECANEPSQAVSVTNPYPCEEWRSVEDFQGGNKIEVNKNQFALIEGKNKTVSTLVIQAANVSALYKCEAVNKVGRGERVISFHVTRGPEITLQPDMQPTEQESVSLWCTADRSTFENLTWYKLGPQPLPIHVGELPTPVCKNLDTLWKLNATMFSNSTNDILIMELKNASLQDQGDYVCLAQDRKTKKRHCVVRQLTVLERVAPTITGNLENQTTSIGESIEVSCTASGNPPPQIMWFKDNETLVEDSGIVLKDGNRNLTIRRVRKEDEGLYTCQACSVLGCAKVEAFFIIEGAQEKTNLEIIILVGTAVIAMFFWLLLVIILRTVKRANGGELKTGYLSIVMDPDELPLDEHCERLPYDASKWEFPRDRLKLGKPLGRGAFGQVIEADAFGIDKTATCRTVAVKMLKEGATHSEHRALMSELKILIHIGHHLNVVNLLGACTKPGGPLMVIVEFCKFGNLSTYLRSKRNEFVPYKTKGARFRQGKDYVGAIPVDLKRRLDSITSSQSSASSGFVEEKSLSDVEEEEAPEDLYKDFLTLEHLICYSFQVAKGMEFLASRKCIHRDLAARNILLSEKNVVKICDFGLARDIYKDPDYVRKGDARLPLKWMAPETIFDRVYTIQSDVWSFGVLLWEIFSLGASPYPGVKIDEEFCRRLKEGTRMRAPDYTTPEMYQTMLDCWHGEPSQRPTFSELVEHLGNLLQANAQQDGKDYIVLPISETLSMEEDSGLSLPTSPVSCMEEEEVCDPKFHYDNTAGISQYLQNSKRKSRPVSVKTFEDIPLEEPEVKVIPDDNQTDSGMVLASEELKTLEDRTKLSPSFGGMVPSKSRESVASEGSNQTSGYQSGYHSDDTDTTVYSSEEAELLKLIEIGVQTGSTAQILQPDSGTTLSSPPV

Substance: VEGF-A (from UniProt P15692)
- Kd: 100 pM
